Assay results: patent US20260263566A1 (REALTA, published 2026)
Ends that are not written are not given here. dPEG24 = 24 PEG moieties, at the C-terminus

Target: T1, Human neutrophil myeloperoxidase (MPO), purified (human, UniProt P05164 165-745, limits assumed)
T1 sequence (looked up): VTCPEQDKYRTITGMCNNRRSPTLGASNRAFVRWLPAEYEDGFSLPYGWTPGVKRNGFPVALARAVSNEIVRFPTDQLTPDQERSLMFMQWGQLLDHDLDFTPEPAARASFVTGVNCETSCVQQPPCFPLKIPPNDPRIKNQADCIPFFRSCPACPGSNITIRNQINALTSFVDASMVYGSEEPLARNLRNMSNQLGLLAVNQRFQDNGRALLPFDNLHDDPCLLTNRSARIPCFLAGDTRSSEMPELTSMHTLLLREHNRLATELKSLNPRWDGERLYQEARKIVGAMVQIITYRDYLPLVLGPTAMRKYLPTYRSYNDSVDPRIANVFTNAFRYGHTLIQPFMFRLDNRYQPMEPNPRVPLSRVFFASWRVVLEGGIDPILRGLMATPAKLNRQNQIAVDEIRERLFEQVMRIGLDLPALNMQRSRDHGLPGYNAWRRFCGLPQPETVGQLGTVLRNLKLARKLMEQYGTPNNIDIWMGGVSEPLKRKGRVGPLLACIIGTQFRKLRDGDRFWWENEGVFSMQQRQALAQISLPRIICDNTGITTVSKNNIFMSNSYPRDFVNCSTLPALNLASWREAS
Experiment: cell-based or functional assay

IALILEPICCQERAA-dPEG24 (cysteine pairing not given here) [PA-dPEG24 (IALILEPICCQERAA-dPEG24)] was tested, and the “peroxidase activity by TMB in peritoneal wash supernatant (rat; 0.1 mg purified MPO IP, then 20 mg PA-dPEG24 IP, 2 hours)” value was 5 fold decrease.
